Test results reported in patent publication US20230025280A1, “PH RESPONSIVE COMPOSITIONS, FORMULATIONS, AND METHODS OF IMAGING A TUMOR” (ONCONANO MEDICINE, INC, priority 2019, published 2023).
Values joined by “and” are separate entries in the source; they are usually repeats but may differ in a detail not shown here. Identical values can stand only once. Marks after values point to notes of the source that are not given here.

Test: Phase 1 (1a/1b) pharmacokinetics: plasma concentrations after single IV dose (validated direct fluorescence reader assay), noncompartmental analysis
Type: in vivo, human
Source text: Phase 1 is a single-Principal Investigator, non-randomized, open-label, single-arm, cross-sectional study to evaluate the safety, PK profile, and imaging feasibility of Compound 1 in patients with solid cancers who require surgical excision. The main purpose of this study was to investigate the safety, PK, and feasibility of Compound 1 as an intra-operative optical imaging agent to detect tumors and metastatic lymph nodes in solid cancers. The study was intended to investigate the optimal dose range of Compound 1 for an adequate TBR and CNR of fluorescence obtained intraoperatively at 24 (±8) hours post dosing and with ex vivo specimens using ICG compatible cameras and imaging devices.
Phase 1 enrolled 30 patients with solid cancers (HNSCC, breast cancer, esophageal cancer, or colorectal cancer) who have a biopsy-confirmed diagnosis of respective tumor types and are scheduled to undergo surgical resection of the tumor. The study design included a standard 3+3 design for the dose-escalation portion (Phase 1a; N=18 maximum) followed by a dose-expansion portion (Phase 1b; N=15). All patients received a single I.V. dose of Compound 1, followed by routine surgery approximately 24 hours after infusion of Compound 1.
Phase 1a was a dose-finding study performed in 5 cohorts of 3 patients each. The dose levels evaluated were […], and 1.2 mg/kg, in this sequence. Inter-cohort dose escalation took place after the last patient in the previous cohort completed the Day 10 safety assessment. Safety, PK, and imaging feasibility were evaluated in both the Phase 1a and 1b portions of the study. Patient safety is assessed during the study and for up to 10 days post-dose.
Study design: Single Compound 1 IV dose was administered as a 1-5 minute IV infusion to patients in five cohorts (0.1, 0.3, 0.5, 0.8, and 1.2 mg/kg) with three patients per cohort in Phase 1a and 15 patients at a dose of 1.2 mg/kg in Phase 1b. Patient demographic information including tumor types is presented in Table 4 and 5 for Phase 1a and Table 5 for Phase 1b. Intertek Pharmaceutical Services (San Diego, Calif.) determined Compound 1 plasma concentrations using a validated direct fluorescence reader assay. Pacific BioDevelopment (Davis, Calif.) performed the PK analysis.
Sample collection: Blood samples were collected prior to infusion and at 10 minutes and 0.5, 1, 3, 8, 24, 48, 72, and 240 hours after infusion.
Analysis: Plasma concentration versus time profiles were generated for each patient. Pharmacokinetic parameters were estimated using Phoenix WinNonlin (version 8.0). According to SOP, concentrations reported as BQL were set to 0 except for the 0.5 h sample for subject #ON1102, which was set to LLOQ/2 ([…] value used in parameter calculations) and the 24 and 48 h samples.
If the coefficient of determination for the terminal slope estimation was less than 0.8, T1/2 was not reported (NR). AUC extrapolated to infinity is not reported for any data set because in all cases the % extrapolated AUC was greater than 20% and thus the AUCinf estimate would not be reliable. The concentration at 10 minutes, the first time point measured (C10m), was also reported for each patient.
The area under the plasma concentration versus time curves from dosing to the last time point with a measurable concentration (AUClast) was estimated by the linear trapezoid method. The last three or more time points were used to estimate the elimination rate constant (λz) which was used to estimate the terminal-phase half-life (T1/2) and AUC from zero to infinity (AUCINF) from the following equations: […]

[1] = 1.2 mg/kg, HNSCC, individual subjects
[2] = Phase 1a, 0.3 mg/kg single IV, individual subject
[3] = Phase 1a, 0.3 mg/kg single IV, mean
[4] = Phase 1a, 0.3 mg/kg single IV, median
[5] = Phase 1a, 0.5 mg/kg single IV, individual subject

PEO90-140-b-P(DBA60-150-r-ICG0-3-r-AMA0-3) [Compound 1]
Cmax (1.2 mg/kg, HNSCC, Mean, N 7): 33.6 µg/mL | Tmax (1.2 mg/kg, HNSCC, Mean, N 7): 1.14 h | T1/2 (1.2 mg/kg, HNSCC, Median, N 5): 42.6 h | AUC0-24 hr (1.2 mg/kg, HNSCC, Median, N 7): 565 µg·h/mL | AUCall (1.2 mg/kg, HNSCC, Median, N 7): 1160 µg·h/mL | AUClast (1.2 mg/kg, HNSCC, Median, N 7): 970 µg·h/mL | C10 m (1.2 mg/kg, HNSCC, Median, N 7): 30.3 µg/mL | Cmax (1.2 mg/kg, HNSCC, Median, N 7): 32.4 µg/mL | Tmax (1.2 mg/kg, HNSCC, Median, N 7): 0.500 h | AUC0-24 hr [1]: 348 µg·h/mL and 563 µg·h/mL and 565 µg·h/mL and 520 µg·h/mL and 625 µg·h/mL and 730 µg·h/mL and 740 µg·h/mL | AUCall [1]: 348 µg·h/mL and 1160 µg·h/mL and 1100 µg·h/mL and 747 µg·h/mL and 2690 µg·h/mL and 2550 µg·h/mL and 2740 µg·h/mL | AUClast [1]: 184 µg·h/mL and 970 µg·h/mL and 957 µg·h/mL and 520 µg·h/mL and 1430 µg·h/mL and 1480 µg·h/mL and 1580 µg·h/mL | C10 m [1]: 28.0 µg/mL and 34.1 µg/mL and 28.5 µg/mL and 27.5 µg/mL and 30.3 µg/mL and 47.6 µg/mL and 31.3 µg/mL | Cmax [1]: 28.0 µg/mL and 34.1 µg/mL and 29.9 µg/mL and 29.2 µg/mL and 32.4 µg/mL and 47.6 µg/mL and 34.3 µg/mL | T1/2 [1]: 32.5 h and 46.5 h and 42.6 h and 38.4 h and 46.8 h | Tmax [1]: 0.170 h and 1.00 h and 0.500 h and 3.00 h | AUC0-24h in relation to dose (Phase 1a and 1b, up to 1.2 mg/kg): appears to be dose proportional | Exposure in relation to dose (Phase 1a and Phase 1b combined): dose proportional | Measurability in subject plasma samples (Phase 1a, 0.1 mg/kg): not measurable | C10 m (Phase 1a, 0.1 mg/kg single IV, individual subject): 0.00 µg/mL | C10 m (Phase 1a, 0.1 mg/kg single IV, mean): 0.00 µg/mL | C10 m (Phase 1a, 0.1 mg/kg single IV, median): 0.00 µg/mL | Plasma Conc (Phase 1a, 0.100 mg/kg, 0.170 hr, individual subject): BQL (BQL (<10 μg/mL), set = 0 for PK analysis) | Plasma Conc (Phase 1a, 0.100 mg/kg, 0.170 hr, mean): 0.00 µg/mL | Plasma Conc (Phase 1a, 0.100 mg/kg, 0.500 hr, individual subject): BQL (BQL (<10 μg/mL), set = 0 for PK analysis) | Plasma Conc (Phase 1a, 0.100 mg/kg, 0.500 hr, mean): 0.00 µg/mL | Plasma Conc (Phase 1a, 0.100 mg/kg, 1.00 hr, individual subject): BQL (BQL (<10 μg/mL), set = 0 for PK analysis) | Plasma Conc (Phase 1a, 0.100 mg/kg, 1.00 hr, mean): 0.00 µg/mL | Plasma Conc (Phase 1a, 0.100 mg/kg, 3.00 hr, individual subject): BQL (BQL (<10 μg/mL), set = 0 for PK analysis) | Plasma Conc (Phase 1a, 0.100 mg/kg, 3.00 hr, mean): 0.00 µg/mL | Plasma Conc (Phase 1a, 0.100 mg/kg, 8.00 hr, individual subject): BQL (BQL (<10 μg/mL), set = 0 for PK analysis) | Plasma Conc (Phase 1a, 0.100 mg/kg, 8.00 hr, mean): 0.00 µg/mL | Plasma Conc (Phase 1a, 0.100 mg/kg, 24.0 hr, individual subject): BQL (BQL (<10 μg/mL), set = 0 for PK analysis) | Plasma Conc (Phase 1a, 0.100 mg/kg, 24.0 hr, mean): 0.00 µg/mL | Plasma Conc (Phase 1a, 0.100 mg/kg, 48.0 hr, individual subject): BQL (BQL (<10 μg/mL), set = 0 for PK analysis) | Plasma Conc (Phase 1a, 0.100 mg/kg, 48.0 hr, mean): 0.00 µg/mL | Plasma Conc (Phase 1a, 0.100 mg/kg, 72.0 hr, individual subject): BQL (BQL (<10 μg/mL), set = 0 for PK analysis) | Plasma Conc (Phase 1a, 0.100 mg/kg, 72.0 hr, mean): 0.00 µg/mL | Plasma Conc (Phase 1a, 0.100 mg/kg, 240 hr, individual subject): BQL (BQL (<10 μg/mL), set = 0 for PK analysis) | Plasma Conc (Phase 1a, 0.100 mg/kg, 240 hr, mean): 0.00 µg/mL | Mean AUC0-24h (Phase 1a, 0.3 mg/kg): 197 µg·h/mL | Mean C10 (Phase 1a, 0.3 mg/kg): 12 µg/mL | AUC0-24 hr [2]: 292 µg·h/mL and 4.68 µg·h/mL and 296 µg·h/mL | AUCall [2]: 437 hr*μg/mL and 4.68 hr*μg/mL and 2040^1 hr*μg/mL | AUClast [2]: 292 µg·h/mL and 3.43 µg·h/mL and 902 µg·h/mL | C10 m [2]: 10.7 µg/mL and 10.4 µg/mL and 14.8 µg/mL | Cmax [2]: 12.5 µg/mL and 10.4 µg/mL and 16.5 µg/mL | Tmax [2]: 8.00 h and 0.170 h and 3.00 h | AUC0-24 hr [3]: 197 µg·h/mL | AUCall [3]: 826 µg·h/mL | AUClast [3]: 399 µg·h/mL | C10 m [3]: 12.0 µg/mL | Cmax [3]: 13.1 µg/mL | Tmax [3]: 3.72 h | AUC0-24 hr [4]: 292 µg·h/mL | AUCall [4]: 437 µg·h/mL | AUClast [4]: 292 µg·h/mL | C10 m [4]: 10.7 µg/mL | Cmax [4]: 12.5 µg/mL | Tmax [4]: 3.00 h | Plasma Conc (Phase 1a, 0.300 mg/kg, 0.170 hr, individual subject): 10.7 µg/mL and 10.4 µg/mL and 14.8 µg/mL | Plasma Conc (Phase 1a, 0.300 mg/kg, 0.170 hr, mean): 12.0 µg/mL | Plasma Conc (Phase 1a, 0.300 mg/kg, 0.500 hr, individual subject): 5.00^b μg/mL and 15.1 μg/mL | Plasma Conc (Phase 1a, 0.300 mg/kg, 0.500 hr, mean): 10.1 µg/mL | Plasma Conc (Phase 1a, 0.300 mg/kg, 1.00 hr, individual subject): 11.4 μg/mL and BQL (BQL (<10 μg/mL), set = 0 for PK analysis) and 12.9 μg/mL | Plasma Conc (Phase 1a, 0.300 mg/kg, 1.00 hr, mean): 8.10 µg/mL | Plasma Conc (Phase 1a, 0.300 mg/kg, 3.00 hr, individual subject): 12.0 μg/mL and BQL (BQL (<10 μg/mL), set = 0 for PK analysis) and 16.5 μg/mL | Plasma Conc (Phase 1a, 0.300 mg/kg, 3.00 hr, mean): 9.50 µg/mL | Plasma Conc (Phase 1a, 0.300 mg/kg, 8.00 hr, individual subject): 12.5 μg/mL and BQL (BQL (<10 μg/mL), set = 0 for PK analysis) and 11.2 μg/mL | Plasma Conc (Phase 1a, 0.300 mg/kg, 8.00 hr, mean): 7.90 µg/mL | Plasma Conc (Phase 1a, 0.300 mg/kg, 24.0 hr, individual subject): 12.1 μg/mL and BQL (BQL (<10 μg/mL), set = 0 for PK analysis) (2×) | Plasma Conc (Phase 1a, 0.300 mg/kg, 24.0 hr, mean): 6.05 µg/mL | Plasma Conc (Phase 1a, 0.300 mg/kg, 48.0 hr, individual subject): BQL (BQL (<10 μg/mL), set = 0 for PK analysis) | Plasma Conc (Phase 1a, 0.300 mg/kg, 48.0 hr, mean): 0.00 µg/mL | Plasma Conc (Phase 1a, 0.300 mg/kg, 72.0 hr, individual subject): BQL (BQL (<10 μg/mL), set = 0 for PK analysis) (2×) and 13.5 μg/mL | Plasma Conc (Phase 1a, 0.300 mg/kg, 72.0 hr, mean): 4.50 µg/mL | Plasma Conc (Phase 1a, 0.300 mg/kg, 240 hr, individual subject): BQL (BQL (<10 μg/mL), set = 0 for PK analysis) | Plasma Conc (Phase 1a, 0.300 mg/kg, 240 hr, mean): 0.00 µg/mL | Mean AUC0-24h (Phase 1a, 0.5 mg/kg): 289 µg·h/mL | Mean C10 (Phase 1a, 0.5 mg/kg): 17.3 µg/mL | AUC0-24 hr [5]: 314 µg·h/mL and 340 µg·h/mL and 213 µg·h/mL | AUCall [5]: 314 µg·h/mL and 1980 µg·h/mL and 213 µg·h/mL | AUClast [5]: 160 µg·h/mL and 969 µg·h/mL and 101 µg·h/mL | C10 m [5]: 22.0 µg/mL and 16.2 µg/mL and 13.6 µg/mL
